Ends that are not written are not given here. Me3 = trimethyl (trimethyl-lysine)
Assays:
SP140 = target: T1, SP140 (Homo sapiens, UniProt Q13342); experiment: fluorescence polarization competition against GSK064; format: binding
T1 construct: 6HisFLAGTEVSP140 (687-867), PHD-Brd

[1] = target: T2, 6His-Flag-Tev-SP140-PHD-Brd (687-867) (human, UniProt Q13342 687-867); experiment: peptide or protein array; Active Motif modified histone peptide array, peptides on the slide; blocked with 3% BSA; 10 mg/mL 6His-Flag-Tev-SP140-PHD-Brd (687-867) in solution; detected with anti-6His antibody and anti-rabbit IgG HRP; in duplicate; conditions: both partners purified
T2 construct: SP140 (Speckled 140 kDa), construct spanning the PHD and Brd domains, aa 687-867; also called SP140 (aa 687-867); source: recombinant protein; not shown: His6, N-terminal, kept; FLAG, N-terminal, kept

[2] = target: T2, 6His-Flag-Tev-SP140-PHD-Brd (687-867); experiment: fluorescence polarisation; competition: H3 peptides serially diluted, displacing 10 nM GSK306 (FAM-labelled GSK761) from 80 nM 6His…140 (687-867); 50 mM HEPES pH 7.5, 50 mM NaCl, 1 mM CHAPS, 1 mM DTT; 30 min; conditions: both partners purified

T2 sequence (Q13342 687-867): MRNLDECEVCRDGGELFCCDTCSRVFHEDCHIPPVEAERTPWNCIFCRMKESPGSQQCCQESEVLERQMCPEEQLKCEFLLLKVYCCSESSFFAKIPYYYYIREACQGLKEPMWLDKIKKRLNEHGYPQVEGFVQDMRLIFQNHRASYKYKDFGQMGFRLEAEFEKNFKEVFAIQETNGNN
T1 sequence (Q13342 687-867): as above

Cn1c(-c2ccc(C(=O)Nc3cccc(CCOC(C)(C)C)c3)cc2)nc2cc(C(=O)Nc3cccc(CCOC(C)(C)C)c3)ccc21 [GSK761]
IC50 (SP140): 77.8 ± 8.27 nM

B1: unmodified H3_(1-19) peptide (histone peptide array) (peptide)
peptide: ARTKQTARKSTGGKAPRKQ
notes: histone H3, residues 1-19; numbers count on: the protein without the initiator methionine; Spotted on the array slide; source: bought: Active Motif modified histone peptide array
binding result [1]: binds

B2: H3K4(3Me) (1-10) (peptide)
peptide: ARTK(Me3)QTARKS
notes: histone H3, residues 1-10; numbers count on: the protein without the initiator methionine; source: bought: Anaspec library
IC50 [2]: 12500 nM

B3: biotinylated H3(+YCK) (1-18 +YCK) (peptide)
peptide: ARTKQTARKSTGGKAPRKYCK
modifications: also: biotin, position not given here
notes: histone H3, residues 1-18; numbers count on: the protein without the initiator methionine; added residues, printed as '+YCK' after 1-18; also called H3_(1-18); source: bought: Anaspec library
IC50 [2]: 270 nM

B4: biotinylated H3 (1-9) (peptide)
peptide: ARTKQTARK
modifications: also: biotin, position not given here
notes: histone H3, residues 1-9; numbers count on: the protein without the initiator methionine; source: bought: Anaspec library
IC50 [2]: 2830 nM

— article PMC9392322, “Modulation of macrophage inflammatory function through selective inhibition of the epigenetic reader protein SP140” (BMC Biology, 2022)
